# In PMC9605926, “Safety of [^177Lu]Lu-NeoB treatment: a preclinical study characterizing absorbed dose and acute, early, and late organ toxicity” (European Journal of Nuclear Medicine and Molecular Imaging, 2022):
# Assay: Dosimetry: absorbed organ dose from biodistribution data (MIRD scheme, RADAR mouse phantom)
# Format: in vivo
# Experimental: Data obtained during the in vivo biodistribution studies were used to calculate the absorbed dose for each organ according to the MIRD-scheme. The time integrated activity concentration coefficients were determined by fitting exponential curves to the activity concentration data points at 1, 4, 24, 48, 96, and 168 h p.i. and integrating these curves over time. The least squares fitting analysis was performed with GraphPad Prism software. The S-values for lutetium-177 were based on the 24 g realistic RADAR mouse phantom. The standard organ weights of this model were used to convert from activity concentration to activity. With this model, the absorbed dose in most organs could be calculated. S-values for organs not included in the mouse model, such as adrenal glands and prostate, were determined with the spherical node model within the Olinda/EXM code.
# The absorbed doses determined from the biodistribution assay were extrapolated to the dose the animals received during the radiotoxicity study. Here, the animals received 3 consecutive injections with a 7-day interval.
# [1] = female, 3× 120 MBq/1200 pmol, extrapolated cumulative
# [2] = male, 3× 40 MBq/400 pmol, extrapolated cumulative
# [3] = male, 3× 80 MBq/800 pmol, extrapolated cumulative
# [4] = male, 3× 120 MBq/1200 pmol, extrapolated cumulative
smiles,measurement,setting,value
"CC(C)CC(CC(C)C)NC(=O)[C@H](Cc1cnc[nH]1)NC(=O)CNC(=O)[C@@H](NC(=O)[C@H](C)NC(=O)[C@H](Cc1c[nH]c2ccccc12)NC(=O)[C@H](CCC(N)=O)NC(=O)[C@@H](Cc1ccccc1)NC(=O)COCC(=O)Nc1ccc(CNC(=O)CN2CCN(CC(=O)O)CCN(CC(=O)O)CCN(CC(=O)O)CC2)cc1)C(C)C [[^177Lu]Lu-NeoB, metal not drawn]",Absorbed dose adrenal glands,"female, 1× 120 MBq/1200 pmol",0.82 Gy
same,Absorbed dose brain,"female, 1× 120 MBq/1200 pmol",0.12 Gy
same,Absorbed dose colon wall,"female, 1× 120 MBq/1200 pmol",1.81 Gy
same,Absorbed dose heart wall,"female, 1× 120 MBq/1200 pmol",0.42 Gy
same,Absorbed dose kidneys,"female, 1× 120 MBq/1200 pmol",5.24 Gy
same,Absorbed dose liver,"female, 1× 120 MBq/1200 pmol",4.37 Gy
same,Absorbed dose lungs,"female, 1× 120 MBq/1200 pmol",0.62 Gy
same,Absorbed dose mammary fat pad,"female, 1× 120 MBq/1200 pmol",1.11 Gy
same,Absorbed dose osteogenic cells,"female, 1× 120 MBq/1200 pmol",0.07 Gy
same,Absorbed dose ovaries,"female, 1× 120 MBq/1200 pmol",0.53 Gy
same,Absorbed dose pancreas,"female, 1× 120 MBq/1200 pmol",3.30 Gy
same,Absorbed dose small intestine,"female, 1× 120 MBq/1200 pmol",1.80 Gy
same,Absorbed dose spleen,"female, 1× 120 MBq/1200 pmol",0.68 Gy
same,Absorbed dose stomach wall,"female, 1× 120 MBq/1200 pmol",1.31 Gy
same,Absorbed dose total body,"female, 1× 120 MBq/1200 pmol",0.65 Gy
same,Absorbed dose urinary bladder,"female, 1× 120 MBq/1200 pmol",0.05 Gy
same,Absorbed dose adrenal glands,[1],2.47 Gy
same,Absorbed dose brain,[1],0.35 Gy
same,Absorbed dose colon wall,[1],5.43 Gy
same,Absorbed dose heart wall,[1],1.27 Gy
same,Absorbed dose kidneys,[1],15.71 Gy
same,Absorbed dose liver,[1],13.11 Gy
same,Absorbed dose lungs,[1],1.87 Gy
same,Absorbed dose mammary fat pad,[1],3.34 Gy
same,Absorbed dose osteogenic cells,[1],0.21 Gy
same,Absorbed dose ovaries,[1],1.60 Gy
same,Absorbed dose pancreas,[1],9.89 Gy
same,Absorbed dose small intestine,[1],5.40 Gy
same,Absorbed dose spleen,[1],2.05 Gy
same,Absorbed dose stomach wall,[1],3.94 Gy
same,Absorbed dose total body,[1],1.95 Gy
same,Absorbed dose urinary bladder,[1],0.15 Gy
same,Absorbed dose adrenal glands,"male, 1× 40 MBq/400 pmol",0.58 Gy
same,Absorbed dose brain,"male, 1× 40 MBq/400 pmol",0.05 Gy
same,Absorbed dose colon wall,"male, 1× 40 MBq/400 pmol",0.81 Gy
same,Absorbed dose heart wall,"male, 1× 40 MBq/400 pmol",0.25 Gy
same,Absorbed dose kidneys,"male, 1× 40 MBq/400 pmol",2.00 Gy
same,Absorbed dose liver,"male, 1× 40 MBq/400 pmol",2.11 Gy
same,Absorbed dose lungs,"male, 1× 40 MBq/400 pmol",0.35 Gy
same,Absorbed dose mammary fat pad,"male, 1× 40 MBq/400 pmol",0.27 Gy
same,Absorbed dose osteogenic cells,"male, 1× 40 MBq/400 pmol",0.03 Gy
same,Absorbed dose pancreas,"male, 1× 40 MBq/400 pmol",2.23 Gy
same,Absorbed dose prostate gland,"male, 1× 40 MBq/400 pmol",0.35 Gy
same,Absorbed dose small intestine,"male, 1× 40 MBq/400 pmol",0.80 Gy
same,Absorbed dose spleen,"male, 1× 40 MBq/400 pmol",0.50 Gy
same,Absorbed dose stomach wall,"male, 1× 40 MBq/400 pmol",1.50 Gy
same,Absorbed dose testes,"male, 1× 40 MBq/400 pmol",0.02 Gy
same,Absorbed dose total body,"male, 1× 40 MBq/400 pmol",0.31 Gy
same,Absorbed dose urinary bladder,"male, 1× 40 MBq/400 pmol",0.02 Gy
same,Absorbed dose adrenal glands,"male, 1× 80 MBq/800 pmol",0.54 Gy
same,Absorbed dose brain,"male, 1× 80 MBq/800 pmol",0.12 Gy
same,Absorbed dose colon wall,"male, 1× 80 MBq/800 pmol",1.21 Gy
same,Absorbed dose heart wall,"male, 1× 80 MBq/800 pmol",0.46 Gy
same,Absorbed dose kidneys,"male, 1× 80 MBq/800 pmol",3.25 Gy
same,Absorbed dose liver,"male, 1× 80 MBq/800 pmol",3.28 Gy
same,Absorbed dose lungs,"male, 1× 80 MBq/800 pmol",0.87 Gy
same,Absorbed dose mammary fat pad,"male, 1× 80 MBq/800 pmol",0.23 Gy
same,Absorbed dose osteogenic cells,"male, 1× 80 MBq/800 pmol",0.06 Gy
same,Absorbed dose pancreas,"male, 1× 80 MBq/800 pmol",2.31 Gy
same,Absorbed dose prostate gland,"male, 1× 80 MBq/800 pmol",0.68 Gy
same,Absorbed dose small intestine,"male, 1× 80 MBq/800 pmol",1.21 Gy
same,Absorbed dose spleen,"male, 1× 80 MBq/800 pmol",0.72 Gy
same,Absorbed dose stomach wall,"male, 1× 80 MBq/800 pmol",1.50 Gy
same,Absorbed dose testes,"male, 1× 80 MBq/800 pmol",0.04 Gy
same,Absorbed dose total body,"male, 1× 80 MBq/800 pmol",0.47 Gy
same,Absorbed dose urinary bladder,"male, 1× 80 MBq/800 pmol",0.04 Gy
same,Absorbed dose adrenal glands,"male, 1× 120 MBq/1200 pmol",0.66 Gy
same,Absorbed dose brain,"male, 1× 120 MBq/1200 pmol",0.15 Gy
same,Absorbed dose colon wall,"male, 1× 120 MBq/1200 pmol",0.93 Gy
same,Absorbed dose heart wall,"male, 1× 120 MBq/1200 pmol",0.68 Gy
same,Absorbed dose kidneys,"male, 1× 120 MBq/1200 pmol",3.21 Gy
same,Absorbed dose liver,"male, 1× 120 MBq/1200 pmol",5.61 Gy
same,Absorbed dose lungs,"male, 1× 120 MBq/1200 pmol",3.91 Gy
same,Absorbed dose mammary fat pad,"male, 1× 120 MBq/1200 pmol",0.49 Gy
same,Absorbed dose osteogenic cells,"male, 1× 120 MBq/1200 pmol",0.12 Gy
same,Absorbed dose pancreas,"male, 1× 120 MBq/1200 pmol",1.54 Gy
same,Absorbed dose prostate gland,"male, 1× 120 MBq/1200 pmol",0.37 Gy
same,Absorbed dose small intestine,"male, 1× 120 MBq/1200 pmol",0.94 Gy
same,Absorbed dose spleen,"male, 1× 120 MBq/1200 pmol",1.35 Gy
same,Absorbed dose stomach wall,"male, 1× 120 MBq/1200 pmol",1.38 Gy
same,Absorbed dose testes,"male, 1× 120 MBq/1200 pmol",0.08 Gy
same,Absorbed dose total body,"male, 1× 120 MBq/1200 pmol",0.66 Gy
same,Absorbed dose urinary bladder,"male, 1× 120 MBq/1200 pmol",0.08 Gy
same,Absorbed dose adrenal glands,[2],1.74 Gy
same,Absorbed dose brain,[2],0.15 Gy
same,Absorbed dose colon wall,[2],2.43 Gy
same,Absorbed dose heart wall,[2],0.75 Gy
same,Absorbed dose kidneys,[2],6.00 Gy
same,Absorbed dose liver,[2],6.33 Gy
same,Absorbed dose lungs,[2],1.05 Gy
same,Absorbed dose mammary fat pad,[2],0.81 Gy
same,Absorbed dose osteogenic cells,[2],0.09 Gy
same,Absorbed dose pancreas,[2],6.69 Gy
same,Absorbed dose prostate gland,[2],1.05 Gy
same,Absorbed dose small intestine,[2],2.40 Gy
same,Absorbed dose spleen,[2],1.50 Gy
same,Absorbed dose stomach wall,[2],4.50 Gy
same,Absorbed dose testes,[2],0.06 Gy
same,Absorbed dose total body,[2],0.93 Gy
same,Absorbed dose urinary bladder,[2],0.06 Gy
same,Absorbed dose adrenal glands,[3],1.62 Gy
same,Absorbed dose brain,[3],0.36 Gy
same,Absorbed dose colon wall,[3],3.63 Gy
same,Absorbed dose heart wall,[3],1.38 Gy
same,Absorbed dose kidneys,[3],9.75 Gy
same,Absorbed dose liver,[3],9.84 Gy
same,Absorbed dose lungs,[3],2.61 Gy
same,Absorbed dose mammary fat pad,[3],0.69 Gy
same,Absorbed dose osteogenic cells,[3],0.18 Gy
same,Absorbed dose pancreas,[3],6.93 Gy
same,Absorbed dose prostate gland,[3],2.04 Gy
same,Absorbed dose small intestine,[3],3.63 Gy
same,Absorbed dose spleen,[3],2.16 Gy
same,Absorbed dose stomach wall,[3],4.50 Gy
same,Absorbed dose testes,[3],0.12 Gy
same,Absorbed dose total body,[3],1.41 Gy
same,Absorbed dose urinary bladder,[3],0.12 Gy
same,Absorbed dose adrenal glands,[4],1.99 Gy
same,Absorbed dose brain,[4],0.44 Gy
same,Absorbed dose colon wall,[4],2.80 Gy
same,Absorbed dose heart wall,[4],2.03 Gy
same,Absorbed dose kidneys,[4],9.62 Gy
same,Absorbed dose liver,[4],16.84 Gy
same,Absorbed dose lungs,[4],11.72 Gy
same,Absorbed dose mammary fat pad,[4],1.47 Gy
same,Absorbed dose osteogenic cells,[4],0.37 Gy
same,Absorbed dose pancreas,[4],4.61 Gy
same,Absorbed dose prostate gland,[4],1.10 Gy
same,Absorbed dose small intestine,[4],2.81 Gy
same,Absorbed dose spleen,[4],4.05 Gy
same,Absorbed dose stomach wall,[4],4.14 Gy
same,Absorbed dose testes,[4],0.23 Gy
same,Absorbed dose total body,[4],1.97 Gy
same,Absorbed dose urinary bladder,[4],0.24 Gy
